Assays:
Assay in all cases: cell-based or functional assay
activin A (human) = target: T1, activin A (human) (UniProt P08476)
T1 sequence: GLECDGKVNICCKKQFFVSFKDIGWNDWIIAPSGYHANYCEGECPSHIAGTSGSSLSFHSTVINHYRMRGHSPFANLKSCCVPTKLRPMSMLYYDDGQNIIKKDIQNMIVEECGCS

[1] = target: T2, myostatin (Homo sapiens (Human)) (UniProt O14793)
T2 sequence: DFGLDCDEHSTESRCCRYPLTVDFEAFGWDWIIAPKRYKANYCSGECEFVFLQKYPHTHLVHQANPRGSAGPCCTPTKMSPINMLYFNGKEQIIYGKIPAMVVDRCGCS

[2] = target: T3, GDF11 (Growth Differentiation Factor 11) (Homo sapiens (Human)) (UniProt O95390)
T3 sequence: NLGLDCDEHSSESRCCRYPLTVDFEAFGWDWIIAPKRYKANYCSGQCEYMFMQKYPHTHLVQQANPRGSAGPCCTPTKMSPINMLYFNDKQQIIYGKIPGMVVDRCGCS

Chain of VGFR(½)-hFc (Aflibercept) (Fc fusion) (chain): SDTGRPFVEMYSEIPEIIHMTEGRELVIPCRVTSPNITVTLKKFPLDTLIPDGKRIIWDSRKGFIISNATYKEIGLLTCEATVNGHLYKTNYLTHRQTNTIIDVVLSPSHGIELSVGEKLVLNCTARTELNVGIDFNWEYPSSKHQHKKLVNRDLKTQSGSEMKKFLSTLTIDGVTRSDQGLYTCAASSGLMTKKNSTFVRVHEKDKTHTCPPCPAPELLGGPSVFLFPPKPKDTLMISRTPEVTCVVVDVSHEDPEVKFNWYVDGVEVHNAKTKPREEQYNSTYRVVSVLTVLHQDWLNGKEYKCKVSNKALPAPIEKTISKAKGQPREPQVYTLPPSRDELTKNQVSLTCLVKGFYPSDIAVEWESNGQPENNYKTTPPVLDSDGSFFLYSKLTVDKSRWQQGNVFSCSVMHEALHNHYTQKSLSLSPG

Substance | neutralization of activin A signaling (pSmad2/3 luciferase reporter bioassay, HEK293) (activin A (human)) [nM] | neutralization of myostatin signaling (pSmad2/3 luciferase reporter bioassay, HEK293) [1] [nM] | neutralization of GDF11 signaling (pSmad2/3 luciferase reporter bioassay, HEK293) [2] [nM]
FSD1 (E126A) (single entity produced in E. coli) (from UniProt P19883 93-165) | > 822 | > 822 | 
VGFR(½)-hFc (Aflibercept) (Fc fusion) |  | > 8.2 | > 8.2

Continued, values first:

neutralization of activin A signaling (pSmad2/3 luciferase reporter bioassay, HEK293) (activin A (human)) [nM] | neutralization of myostatin signaling (pSmad2/3 luciferase reporter bioassay, HEK293) [1] [nM] | neutralization of GDF11 signaling (pSmad2/3 luciferase reporter bioassay, HEK293) [2] [nM] | Substance
> 822 | > 822 |  | FSD1 (Q124A) (single entity produced in E. coli) (from UniProt P19883 93-165)
> 822 | > 822 |  | FSD1 (Q124A, E126A) (single entity produced in E. coli) (from UniProt P19883 93-165)
> 8.2 | > 8.2 | > 8.2 | TNFR2-hFc (Etanercept) (Fc fusion)

Source: patent publication US20260209291A1
